Laboratory results taken from patent EP1739090A2 (Biogen Idec MA Inc., dated 2007).
Positions count from the first letter of the chain named.

T1: IFNAR2/Fc fusion protein (extracellular domain of the human IFNAR2 receptor chain fused to the hinge, CH2 and … (human, UniProt P48551 27-243))
T1 construct: extracellular domain; Expressed in CHO cells, purified on protein A, captured on plates by mouse anti-human IgG1 mAb CDG5-AA9; also called IFNAR2-ectodomain/Fc fusion protein; IFNAR/Fc; not shown: human IgG1 heavy chain constant region: hinge, CH2 and CH3 domains
T1 sequence (looked up): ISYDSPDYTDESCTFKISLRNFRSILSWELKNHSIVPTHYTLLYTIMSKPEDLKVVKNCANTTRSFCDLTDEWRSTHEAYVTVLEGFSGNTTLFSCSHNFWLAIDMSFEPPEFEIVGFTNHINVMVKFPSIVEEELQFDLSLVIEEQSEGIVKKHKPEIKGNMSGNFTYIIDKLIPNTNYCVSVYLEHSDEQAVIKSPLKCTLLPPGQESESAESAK

T2: type I interferon cell surface receptor complex (IFNAR1/2 complex) expressed on Daudi Burkitt's lymphoma cells (human, UniProt P17181 28-557; P48551 27-515)
T2 construct: whole, on cells; Endogenous receptor of human Daudi cells; both chains together comprise the receptor for interferon-beta; also called IFNAR1/2 cell surface receptor; cognate receptor on Daudi cells
T2 sequence (looked up) 1: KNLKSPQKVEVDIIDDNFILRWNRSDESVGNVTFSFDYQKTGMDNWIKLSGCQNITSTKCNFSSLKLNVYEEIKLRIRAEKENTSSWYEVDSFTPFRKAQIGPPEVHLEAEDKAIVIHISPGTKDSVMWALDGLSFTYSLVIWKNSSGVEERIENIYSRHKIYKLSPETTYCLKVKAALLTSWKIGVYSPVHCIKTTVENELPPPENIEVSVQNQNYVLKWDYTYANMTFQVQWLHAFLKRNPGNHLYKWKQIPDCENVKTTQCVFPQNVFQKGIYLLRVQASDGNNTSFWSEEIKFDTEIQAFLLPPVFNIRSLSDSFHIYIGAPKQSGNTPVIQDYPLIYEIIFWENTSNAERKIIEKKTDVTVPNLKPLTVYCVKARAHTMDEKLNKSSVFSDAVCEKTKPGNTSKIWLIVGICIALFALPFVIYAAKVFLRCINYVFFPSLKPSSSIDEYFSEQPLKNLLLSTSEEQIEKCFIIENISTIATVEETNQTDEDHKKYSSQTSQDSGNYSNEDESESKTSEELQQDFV
T2 sequence (looked up) 2: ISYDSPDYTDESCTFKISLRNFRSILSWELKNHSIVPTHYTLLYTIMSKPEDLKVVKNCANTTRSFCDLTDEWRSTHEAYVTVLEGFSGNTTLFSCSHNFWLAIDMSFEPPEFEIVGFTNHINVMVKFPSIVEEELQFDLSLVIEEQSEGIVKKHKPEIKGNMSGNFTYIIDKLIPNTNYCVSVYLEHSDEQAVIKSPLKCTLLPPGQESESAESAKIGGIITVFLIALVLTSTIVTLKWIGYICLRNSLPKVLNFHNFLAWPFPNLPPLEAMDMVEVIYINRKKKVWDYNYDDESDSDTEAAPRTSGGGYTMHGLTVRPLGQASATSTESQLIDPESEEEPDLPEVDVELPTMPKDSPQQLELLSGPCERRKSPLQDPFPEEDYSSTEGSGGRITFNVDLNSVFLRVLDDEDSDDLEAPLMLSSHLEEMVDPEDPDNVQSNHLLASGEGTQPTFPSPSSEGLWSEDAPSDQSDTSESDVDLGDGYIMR

B1: histidine tagged wild-type interferon-beta-1a (ligand)
chain: SGGHHHHHHSSGDDDDKMSYNLLGFLQRSSNFQCQKLLWQLNGRLEYCLKDRMNFDIPEEIKQLQQFQKEDAALTIYEMLQNIFAIFRQDSSSTGWNETIVENLLANVYHQINHLKTVLEEKLEKEDFTRGKLMSSLHLKRYYGRILHYLKAKEYSHCAWTIVRVEILRNFYFINRLTGYLRN
notes: also called his IFN-beta; His6-tagged
B2: his tagged-interferon-beta alanine substitution mutant A2 (ligand)
chain: B1 chain with F32A, Q33A, Q35A, K36A, W39A, Q40A
notes: Tested as conditioned medium of EBNA 293 cells
B3: his tagged-interferon-beta alanine substitution mutant AB1 (ligand)
chain: B1 chain with L45A, E46A, Y47A, L49A, K50A
notes: as for B2
B4: his tagged-interferon-beta alanine substitution mutant AB2 (ligand)
chain: B1 chain with M53A, N54A, D56A, E59A
notes: as for B2
B5: his tagged-interferon-beta alanine substitution mutant E (ligand)
chain: B1 chain with V165A, R169A, Y172A, N175A
notes: as for B2

Experiments:
[1] = molecular target: T1, IFNAR2/Fc fusion protein (extracellular …); assay: ELISA on captured IFNAR2/Fc; reference of the assay, EC50 not given
[2] = molecular target: T2, type I interferon cell surface receptor …; assay: FACS on Daudi cells, inhibition of EA12 staining; reference of the assay, value not given
[3] = molecular target: T1, IFNAR2/Fc fusion protein (extracellular …); assay: ELISA on captured IFNAR2/Fc
[4] = molecular target: T1, IFNAR2/Fc fusion protein (extracellular …); assay: ELISA on IFNAR2/Fc captured by anti-human IgG1 mAb

| Binder | binding result [1] | binding result [2] | concentration without binding, fold over the w.t. his-IFN-beta EC50 [3] | binding result [4] |
| --- | --- | --- | --- | --- |
| B1 | binds | binds |  |  |
| B2 |  |  | 500 fold | no binding |
| B3 |  |  | > 500 fold | no binding |
| B4 |  |  | > 500 fold | no binding |
| B5 |  |  | > 500 fold | no binding |
